# From PMC5053164
# B1: DORN1 extracellular domain (atDORN1-ECD; LecRK-I.9): Endo H (protein)
# parent chain: MARWLLQILIISSLHLSSVSSQQETSFVYESFLDRQNLYLDKSAIVLPSGLLQLTNASEHQMGHAFHKKPIEFSSSGPLSFSTHFVCALVPKPGFEGGHGIVFVLSPSMDFTHAESTRYLGIFNASTNGSSSYHVLAVELDTIWNPDFKDIDHNHVGIDVNSPISVAIASASYYSDMKGSNESINLLSGNPIQVWVDYEGTLLNVSVAPLEVQKPTRPLLSHPINLTELFPNRSSLFAGFSAATGTAISDQYILWWSFSIDRGSLQRLDISKLPEVPHPRAPHKKVSTLIILLPVCLAILVLAVLAGLYFRRRRKYSEVSETWEKEFDAHRFSYRSLFKATKGFSKDEFLGKGGFGEVYRGNLPQGREIAVKRVSHNGDEGVKQFVAEVVSMRCLKHRNLVPLFGYCRRKRELLLVSEYMPNGSLDEHLFDDQKPVLSWSQRLVVVKGIASALWYLHTGADQVVLHRDVKASNIMLDAEFHGRLGDFGMARFHEHGGNAATTAAVGTVGYMAPELITMGASTGTDVYAFGVFMLEVTCGRRPVEPQLQVEKRHMIKWVCECWKKDSLLDATDPRLGGKFVAEEVEMVMKLGLLCSNIVPESRPTMEQVVLYLNKNLPLPDFSPYTLGIGTFAPVLVDASSLVVSSASWSLSGPSMSSSSPNHSPYAWQSTDQPWGQTIDTKNSLHIVAEPEKPSPAVKMVTLPAEDPQSNHSSISSQRVQPVKREKRRLHQILVAFPWINKQYFKLGLPKHIVHVSLFFFLQLARL
# B2: DORN1 extracellular domain (atDORN1-ECD; LecRK-I.9): PNGase F (protein)
# parent chain: B1 parent chain
# B3: DORN1 extracellular domain (atDORN1-ECD; LecRK-I.9): N124N225D (protein)
# parent chain: B1 parent chain
# B4: DORN1 extracellular domain (atDORN1-ECD; LecRK-I.9): N124N204D (protein)
# parent chain: B1 parent chain
# B5: DORN1 extracellular domain (atDORN1-ECD; LecRK-I.9): N124N128N204N225D (protein)
# parent chain: B1 parent chain
# B6: DORN1 extracellular domain (atDORN1-ECD; LecRK-I.9): N128N204N225D (protein)
# parent chain: B1 parent chain
# B7: DORN1 extracellular domain (atDORN1-ECD; LecRK-I.9): N204N225D (protein)
# parent chain: B1 parent chain
# B8: DORN1 extracellular domain (atDORN1-ECD; LecRK-I.9): N124N128D (protein)
# parent chain: B1 parent chain
# B9: DORN1 extracellular domain (atDORN1-ECD; LecRK-I.9): N124N128N204D (protein)
# parent chain: B1 parent chain
# B10: DORN1 extracellular domain (atDORN1-ECD; LecRK-I.9): N124N128N225D (protein)
# parent chain: B1 parent chain
# B11: DORN1 extracellular domain (atDORN1-ECD; LecRK-I.9): N124N204N225D (protein)
# parent chain: B1 parent chain
# B12: DORN1 extracellular domain (atDORN1-ECD; LecRK-I.9): N128N204D (protein)
# parent chain: B1 parent chain
# B13: DORN1 extracellular domain (atDORN1-ECD; LecRK-I.9): N204D (protein)
# parent chain: B1 parent chain
# B14: DORN1 extracellular domain (atDORN1-ECD; LecRK-I.9): N124D (protein)
# parent chain: B1 parent chain
# B15: DORN1 extracellular domain (atDORN1-ECD; LecRK-I.9): N128D (protein)
# parent chain: B1 parent chain
# B16: DORN1 extracellular domain (atDORN1-ECD; LecRK-I.9): N225D (protein)
# parent chain: B1 parent chain
# Assay: aggregation after overnight glycosidase digestion
# Details: glycan lost; control: untreated
row,Protein,stability_or_folding
1,B1,decreases
2,B2,decreases

# Assay: expression yield of multisite mutants
# Details: glycan lost; control: wild type
row,Protein,"expression_or_secretion, percent_of_wt"
1,B3,decreases
2,B4,decreases
3,B5,decreases
4,B6,decreases
5,B7,decreases
6,B8,decreases
7,B9,decreases
8,B10,decreases
9,B11,decreases
10,B12,decreases

# Assay: yield of purified secreted protein, SDS-PAGE
# Details: glycan lost; control: wild type
row,Protein,expression_or_secretion
1,B13,no change
2,B14,no change
3,B15,no change
4,B16,no change
